From PMC11018607, “A widely conserved protein Rof inhibits transcription termination factor Rho and promotes Salmonella virulence program” (Nature Communications, 2024) come the findings set out here.

In the assay the target is T1, Transcription termination factor Rho (E. coli) (E. coli, UniProt P0AG30 1-419).
T1 construct: Transcription termination factor Rho, E. coli, expressed from pET24b-rho; no tag is mentioned; In the cryo-EM map density was absent for residues 280-284; also called EcRho; Rho hexamer; source: E. coli BL21(DE3) carrying pET24b-rho, purified (HiTrap Q, heparin, Superdex 200)
T1 sequence (P0AG30 whole entry, the tested form may be a part): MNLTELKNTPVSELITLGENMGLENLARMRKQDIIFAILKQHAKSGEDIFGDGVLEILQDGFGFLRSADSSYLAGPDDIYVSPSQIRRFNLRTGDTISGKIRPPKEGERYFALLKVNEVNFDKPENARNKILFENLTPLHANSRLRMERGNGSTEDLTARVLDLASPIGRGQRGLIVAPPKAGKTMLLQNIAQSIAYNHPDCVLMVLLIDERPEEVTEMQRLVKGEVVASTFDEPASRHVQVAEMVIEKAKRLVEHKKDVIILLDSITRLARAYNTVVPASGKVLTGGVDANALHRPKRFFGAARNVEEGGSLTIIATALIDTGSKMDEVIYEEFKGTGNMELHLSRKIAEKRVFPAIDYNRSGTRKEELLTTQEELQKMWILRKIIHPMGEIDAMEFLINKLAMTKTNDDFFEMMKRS
Description: SEC; gel filtration of the complex assembled by mixing purified Rho and Rof at a ratio of 1:1. Particulars: both partners purified.

B1: Rof (Rho-off, YaeO), E. coli (natural protein)
chain: MNDTYQPINCDDYDNLELACQHHLMLTLELKDGEKLQAKASDLVSRKNVEYLVVEAAGETRELRLDKITSFSHPEIGTVVVSES
notes: Protein Rof (YaeO), E. coli, expressed from pET22b-rof; In the cryo-EM map density was absent for Rof residues 1-5; No removal of the tag is described; also called EcRof; source: E. coli BL21(DE3) transformed with pET22b-rof, purified (Ni-NTA, Superdex 200)
For the molecule B1, the binding result is “binds”.
